Laboratory results published in patent publication US10752675B2, “Compounds for treating the remyelination blockade in diseases associated with the expression of HERV-W envelope protein” (GENEURO S.A., priority 2012, dated 2020).
“Also recorded” adds a separate entry of the source.

What was measured:
[1] = test system: MSRV-Env induced EAE in C57BL/6 mice; test: Rotarod test, Example 3.A (MSRV-Env induced EAE); assay type: in vivo; conditions: Example 3.A doses
Description: 9 and 8 days before immunization. Transfer of mice, in their home cages, from the holding room to the experimental room. Mice are habituated to the experimental room for 15 min. During the training period, each mouse was placed on the rotarod at a constant speed (4 rpm) if one mouse was falling, she was back on rotarod, when mice were comfortable on the rotarod, mice were running during 120 sec. All mice were returned to their cage, the speed was increased to 13 rpm and mice were again put on the rotarod for 120 sec. All mice were returned to their cage, the speed was increased to 19 rpm and mice were again put on the rotarod for 120 sec. The experimental-room environment were kept constant between test sessions with respect to temperature, and light intensity.
1 day before each immunization, mice were transferred in their home cages, from the holding room to the experimental room. Mice were habituated to the experimental room for 15 min. Mice then received two trials at 10 increasing speed levels, ranging from 7 to 40 rpm. Individual delays before falling off the rotarod (for the two trials at each speed level) was recorded until 60 sec. Thus, training and performance on the Rotarod system were determined for each animal.
The ROTAROD test results are expressed as kinetics of the mean of individual scores for each group with SEM indicated by bars, for each test day and for each test speed within the discriminating range for neuromotor impairment in present conditions (16 to 29 rpm).
They are calculated for each individual mouse, for each test day and for each speed value, as the relative gain or loss of time on Rotarod (before falling), compared to the first test day at the same speed (D-7, before starting the disease induction in relevant groups). The value is calculated as “Time on Rotarod at dayX”−“Time at Day-7 for the same mouse at the same speed”. Figures illustrate the kinetics for the different groups on the whole study period, for representative discriminative speed values when validated to differentiate ill from healthy animals in our conditions (e.g., too high or too low speed values either made healthy ones fall immediately or ill ones capable to sustain a slow movement).
All groups of 6 (six) mice have been first injected s.c. in the neck on day 0 then in the dorsal flanks on day 7 and 14; with 200 μg of MOG/mouse+60 μg of MSRV-Env+IFA.
For Groups G to H, the treatments with GNbAc1, L-NAME, SMT and DMF alone or together with GNbAc1 with the doses indicated below, have been initiated on day 12 post immunization when the progression of EAE clinical symptoms was already observed. GNbAc1 humanized antibody was administered once, but L-Name or SMT was administered every 4 days until termination of the study on day 29. Regarding Groups E and H, attributed for the treatment with DMF, we have previously determined the volume of daily water consumption by each mouse and it has been determined that (in our condition), each mouse consumed around 3.5 ml drinking water per day. Thus, on the basis of this measurement, a dose of 1 mg DMF+0.08% Methocel per mouse were added to 3.5 ml drinking water daily.

[2] = test system: MSRV-Env induced EAE in C57BL/6 mice; test: EAE clinical score with intravenous MSRV-Env challenge, Example 3.B; assay type: in vivo
Excerpt: Animals were weighed and clinically scored 5 days per week according to the following criteria: 0=no signs; 1=tail paralysis or hyper-reflex of hind limb(s) or unilateral hind limb weakness; 2=bilateral hind limb or forelimb weakness; 3=plus unilateral paralysis or major deficit; 4=complete hind limb or forelimb paralysis; 5=plus partial paralysis or major deficit of opposite limbs; 6=moribund or dead. These were adapted from standard criteria, in order to reflect the more rapid induction of brain and cervical cord lesions with this model.
When not specified, all materials and methods were as described for Example 3A.
All mice received three injections s.c. on the neck at DO, on the dorsal flank at D7 and D14. Here, mice from Group A were injected with 200 μg/mouse of MOG and IFA only, without Env, thus constituting a negative control group without EAE in the present series (ctrl −). The positive control group with untretated EAE in the present series is represented by Group B (ctrl +). Other groups were injected with 200 μg of MOG/mouse+MSRV-ENV (60 μg)+IFA, with treatments as indicated in the above summarized presentation. […]
For Groups G and H receiving DMF, we have previously determined the volume of daily water consumption by each mouse and it has been realized that (in our condition), each mouse consumed around 3.5 ml drinking water per day. […]

[3] = Weight gain kinetics, Example 3.B; assay type: in vivo, mice
Description: Mice were weighed 3 times a week on Monday, Wednesday and Friday during all experiment.
All mice received three injections s.c. on the neck at DO, on the dorsal flank at D7 and D14. Here, mice from Group A were injected with 200 μg/mouse of MOG and IFA only, without Env, thus constituting a negative control group without EAE in the present series (ctrl −). The positive control group with untretated EAE in the present series is represented by Group B (ctrl +). Other groups were injected with 200 μg of MOG/mouse+MSRV-ENV (60 μg)+IFA, with treatments as indicated in the above summarized presentation. Treatments have been initiated on day 12 post immunization in their corresponding groups.
The clinical signs score and weight were evaluated regularly as described above. The EAE clinical score kinetics over the study period are represented in FIGS. 22, 23 and 24. The weight curves, indicating relative weight gain compared to the day before first injection of immunogens, are presented in FIGS. 25, 26 and 27.

B1: GNbAC1: recombinant humanized anti-Env IgG4 monoclonal antibody comprising the CDRs of SEQ ID No. 1 to 6 (antibody, chains of the INN, looked up, V domains shown)
VH: QVQLVQSGAEVKKPGSSVKVSCKASGYTFTDYEMHWVRQAPGQGLEWIGAVAPETGGTAYNQKFKGRATITADKSTSTAYMELSSLRSEDTAVYYCTSTVVPFAYWGQGTLVTVSS
VL: QIQLTQSPSSLSASVGDRVTITCSASSSVSYMYWYQQKPGKAPKAWIYRTSNLASGVPSRFSGSGSGTDYTLTISSLQPEDFATYYCQQYQSLPLTFGGGTKVEIK
[1]; compared to untreated group A / to GNbAc1 alone
  Rotarod scores in all conditions (16 to 29 rpm tests): greatly stabilized and/or improved scores
[1]; end of study period
  Time on Rotarod at 23 rpm relative to Day -7: recovered a score similar to control mice without disease induction
  Time on Rotarod at 26 rpm relative to Day -7: recovered a score similar to D,G,C,E and H groups
  Time on Rotarod at 29 rpm relative to Day -7: recovered a score similar to control mice without disease induction
[2]; GNbAC1 200 μg at day 12, alone or with SMT (I.P. twice a week) or DMF (2 mg daily in drinking water)
  EAE clinical score after iv MSRV-Env challenge (20 μg): transient clinical impairment
[2]; GNbAC1 500 μg at day 12, alone or with SMT or DMF (2 mg daily in drinking water)
  EAE clinical score after iv MSRV-Env challenge (20 μg): very efficient in conferring resistance; also recorded: best clinical efficiency
[3]; GNbAC1 200 μg
  weight gain over the study period, endpoint: endpoints equivalent to mock-controls
[3]; GNbAC1 500 μg, alone or with DMF
  weight gain over the study period, endpoint: best endpoint; also recorded: positive effect on the global health
